Tests used:
Test in all cases: flow cytometry on cells
[1] = molecular target: CD45RABC ECD-GFP (extracellular domain and transmembrane region of CD45RABC, phosphatase domains replaced by GFP) (human)
[2] = molecular target: full-length human CD45RO (human) (UniProt P08575)
[3] = molecular target: CD45RO ECD-GFP (extracellular domain and transmembrane region of CD45RO, phosphatase domains replaced by GFP) (human)
[4] = molecular target: full-length human CD45RABC (human) (UniProt P08575)

“sec49K-His (recombinant N-terminal ectodomain of HAdV-D64 E3/49K, residues 20-353, from insect cells) (domain or fragment)” showed an EC50 [1] of 550 pM, an EC50 [2] of 1350 pM and an EC50 [3] of 540 pM. The EC50 [4] was 1260 pM.
